Values joined by “and” are separate entries in the source; they are usually repeats but may differ in a detail not shown here. Equal entries are not always repeated.
B2: canine NGF tagged at the C-terminus with the Flag tag (ligand)
chain: SSSHPVFHRGEFSVCDSVSVWVGDKTTATDIKGKEVMVLGEVNINNSVFKQYFFETKCRDPTPVDSGCRGIDSKHWNSYCTTTHTFVKALTMDGKQAAWRFIRIDTACVCVLSRKAGRRADYKDDDDK
notes: Baculovirus expression; also called feline NGF (processed form identical)

Experiments:
[1] = target: canine NGF with a strep-tag at the C-terminus (canine, UniProt A0A8I3PYI3 122-241); assay: cell-based or functional assay
[2] = target: B2; assay: SPR; antibody amine-coupled to HC30M sensor chip, canine NGF-Flag as analyte
[3] = target: T1, NT-3 (R&D Systems, 267-N3-025/CF) (UniProt P20783 139-257); assay: multiplexed bead assay, flow cytometry
T1 sequence (looked up): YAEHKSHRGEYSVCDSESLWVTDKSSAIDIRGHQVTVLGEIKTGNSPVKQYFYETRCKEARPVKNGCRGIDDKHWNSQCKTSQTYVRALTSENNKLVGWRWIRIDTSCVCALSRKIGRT

[4] = target: T2, BDNF (R&D Systems, 248-BDB-050/CF) (UniProt P23560 129-247); assay: multiplexed bead assay, flow cytometry
T2 sequence (looked up): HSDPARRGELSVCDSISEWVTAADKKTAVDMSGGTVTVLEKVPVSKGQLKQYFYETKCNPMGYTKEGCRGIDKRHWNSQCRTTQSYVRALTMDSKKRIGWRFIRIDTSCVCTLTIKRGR

[5] = target: T3, human NGF (R&D Systems, 256-GF-100/CF) (human, UniProt P01138 122-241); assay: multiplexed bead assay, flow cytometry
T3 construct: Conjugated to beads or fluorescently labelled; also called human NGF antigen

[6] = target: B2; assay: SPR, antibody amine-coupled, NGF analyte
canine TrkA-Fc [7] = target: T4, canine TrkA-Fc (canine; human, UniProt A0A8I3P078 33-423); assay: SPR, TrkA-Fc captured on anti-human Fc chip, NGF analyte
T4 construct: extracellular domain; also called Trk-Fc; canine TrkA in a dimer format; not shown: human IgG1 Fc, UniProtKB P01857

canine p75-Fc = target: T5, canine p75-Fc (canine; human); assay: SPR, p75-Fc captured on anti-human Fc chip, NGF analyte
T5 construct: extracellular domain; also called canine p75 in a dimer format; not shown: human IgG1 Fc, UniProtKB P01857

[8] = target: B2; assay: SPR, antibody captured on goat anti-cat IgG, single cycle kinetics, NGF analyte
[9] = target: B2; assay: SPR Biacore T200, antibody captured on protein A, NGF analyte
[10] = target: B2; assay: SPR Biacore T200, antibody captured on protein A, NGF analyte; fitted KD, one-to-one model
canine TrkA-Fc [11] = target: T4, canine TrkA-Fc; assay: SPR, receptor-Fc captured on anti-human Fc chip
[12] = target: T6, canine NGF tagged at the C-terminus with the Flag tag (canine, UniProt A0A8I3PYI3 122-241); assay: SPR, IgG amine-coupled to HC30M chip, NGF analyte
T6 construct: mature; Expressed with baculovirus technology; also called feline NGF (processed form identical)

[13] = target: T7, canine NGF tagged at the C-terminus with the Flag tag (canine, UniProt A0A8I3PYI3 122-241); assay: SPR, Biacore T200; antibody captured on anti-feline CM5 chip, NGF as analyte; 1:1 model
T7 construct: mature; 'mature' rests on the words 'processed form'; also called feline NGF (processed form identical)

T4 sequence (A0A8I3P078 entry or part of it): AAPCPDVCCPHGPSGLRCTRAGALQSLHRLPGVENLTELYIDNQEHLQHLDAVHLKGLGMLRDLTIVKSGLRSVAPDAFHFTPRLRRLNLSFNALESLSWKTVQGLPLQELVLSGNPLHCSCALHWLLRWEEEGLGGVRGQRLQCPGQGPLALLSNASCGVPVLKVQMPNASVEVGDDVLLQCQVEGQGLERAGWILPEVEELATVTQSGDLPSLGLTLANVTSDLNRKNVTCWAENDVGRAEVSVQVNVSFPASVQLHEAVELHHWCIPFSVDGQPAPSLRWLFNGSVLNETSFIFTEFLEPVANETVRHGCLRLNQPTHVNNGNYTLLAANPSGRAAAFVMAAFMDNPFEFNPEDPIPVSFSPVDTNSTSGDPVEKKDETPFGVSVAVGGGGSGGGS
T3 sequence (P01138 122-241 limits assumed): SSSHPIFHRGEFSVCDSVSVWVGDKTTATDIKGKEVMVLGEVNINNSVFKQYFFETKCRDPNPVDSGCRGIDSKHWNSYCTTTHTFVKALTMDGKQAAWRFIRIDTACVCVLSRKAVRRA

B1: rat antibody 2166 (antibody, V domains shown)
VH: QVQLKESGPGLVQPSQTLSLTCTVSGLSLTSNSVSWIRQPPGKGLEWMGVIWSNGGTDYNSAIESRLSINRDTSKSQVFLKMNSLQPEDTAMYFCASIYYYDADYLHWYFDFWGPGTMVTVSS
VL: DIQMTQSPASLSASLGETVSIECLASEGISNSLAWYQLKPGKSPQFLIYATSSLQDGVPSRFSGSGSGTQYSLKISGMQPEDEGVYYCQQGYKFPLTFGSGTKLKIK
[1]
  IC50 (read off the curve): % inhibition of canine NGF-driven TF-1 cell proliferation: ~0.03 nM
[2]
  Kd: 0.042 nM
[3]
  binding result: no binding
[4]
  binding result: no binding
[5]
  fold over background (MFI normalized over isotype control): > 59 fold
[6]
  Kd: ≤ 0.0042 nM
  koff: ≤ 1e-05 s⁻¹
  kon: 2.38e+06 M⁻¹ s⁻¹

## B2
Canine TrkA-Fc [7]
  Kd: 0.013 nM and 0.0066 nM
  koff: 0.00017 s⁻¹ and 0.00016 s⁻¹
  kon: 1.3e+07 M⁻¹ s⁻¹ and 2.4e+07 M⁻¹ s⁻¹
Canine p75-Fc
  Kd: 3.7 nM and 2.7 nM

B3: felinized clone 101 (antibody, V domains shown)
VH: DVQLVESGGDLVKPGGSLRLTCVASGLSLTSSSMSWVRQAPGKGLQWVSTIYSNGGTYYTDSVKGRFTISKDNAENTLYLQMNNLKTEDTATYYCASIYYYDADYLHWYFDFWGQGALVTVSS
VL: EIQMTQSPTSLSASVGDRVTITCRASEGISNNLSWYQQTPGKAPKLLIYATSNLHSGVPSRFSGSGSGTDFTLTISSLQPEDFATYYCQQGYKWPLTFGGGTKLEIT
[8]
  Kd: 7.8 nM
  koff: 0.003 s⁻¹
  kon: 380000 M⁻¹ s⁻¹

B4: canine 2166 chimeric antibody (antibody, V domains shown)
VH: QVQLKESGPGLVQPSQTLSLTCTVSGLSLTSNSVSWIRQPPGKGLEWMGVIWSNGGTDYNSAIESRLSINRDTSKSQVFLKMNSLQPEDTAMYFCASIYYYDADYLHWYFDFWGPGTMVTVSS
VL: DIQMTQSPASLSASLGETVSIECLASEGISNSLAWYQLKPGKSPQFLIYATSSLQDGVPSRFSGSGSGTQYSLKISGMQPEDEGVYYCQQGYKFPLTFGSGTKLKIKR
[9]
  koff: < 1e-05 s⁻¹
  kon: 1.2e+07 M⁻¹ s⁻¹
[10]
  Kd: ≤ 0.05 nM
Canine TrkA-Fc [11]
  binding result: no binding (tested: 12.5 nM to 100 nM)

B5: felinized clone 101 (IgG) (antibody, V domains shown)
VH: DVQLVESGGDLVKPGGSLRLTCVASGLSLTSSSMSWVRQAPGKGLQWVSTIYSNGGTYYTDSVKGRFTISKDNAENTLYLQMNNLKTEDTATYYCASIYYYDADYLHWYFDFWGQGALVTVSS
VL: EIQMTQSPTSLSASVGDRVTITCRASEGISNNLSWYQQTPGKAPKLLIYATSNLHSGVPSRFSGSGSGTDFTLTISSLQPEDFATYYCQQGYKWPLTFGGGTKLEIT
[12]
  Kd: 2.1 nM
  koff: 0.00022 s⁻¹
  kon: 110000 M⁻¹ s⁻¹

B6: SC-184_76 (antibody, IgG1a, V domains shown)
VH: DVQLVESGGDLVKPGGSLRLTCVASGLSLTSDSMSWVRQAPGKGLQWVSTLWSNGGTYYTDSVKGRFTISKDNAENTLYLQMNNLKTEDTATYYCASIYYYEADYLHWYFDFWGQGALVTVSS
VL: EIQMTQSPTSLSASVGDRVTITCRASEGIANNLSWYQQTPGKAPKLLIYATSNLHSGVPSRFSGSGSGTDFTLTISSLQPEDFATYYCQQGFKWPLTFGGGTKLEIT
[12]
  Kd: 0.25 nM
  koff: 6.9e-05 s⁻¹
  kon: 270000 M⁻¹ s⁻¹

B7: SC-184_102 (antibody, IgG1a, V domains shown)
VH: DVQLVESGGDLVKPGGSLRLTCVASGLSLTSNSMSWVRQAPGKGLQWVSTIWSNGGTYYTDSVKGRFTISKDNAENTLYLQMNNLKTEDTATYYCASIYYYEAEYLHWYFDFWGQGALVTVSS
VL: EIQMTQSPTSLSASVGDRVTITCRASKGISNNLSWYQQTPGKAPKLLIYAQSNLHSGVPSRFSGSGSGTDFTLTISSLQPEDFATYYCQQGYKWPLTFGGGTKLEIT
[12]
  kon: 210000 M⁻¹ s⁻¹

B8: SC-184_110 (antibody, IgG1a, V domains shown)
VH: DVQLVESGGDLVKPGGSLRLTCVASGLSLTSASMSWVRQAPGKGLQWVSTIYSNGGTYYTDSVKGRFTISKDNAENTLYLQMNNLKTEDTATYYCASIYYYEAEYLHWYFDFWGQGALVTVSS
VL: EIQMTQSPTSLSASVGDRVTITCRASEGISKNLSWYQQTPGKAPKLLIYATDNLHSGVPSRFSGSGSGTDFTLTISSLQPEDFATYYCQQGWKWPLTFGGGTKLEIT
[12]
  Kd: 0.36 nM
  koff: 3.6e-05 s⁻¹
  kon: 160000 M⁻¹ s⁻¹

B9: SC-184_110-Arg (antibody, V domains shown)
VH: DVQLVESGGDLVKPGGSLRLTCVASGLSLTSASMSWVRQAPGKGLQWVSTIYSNRGTYYTDSVKGRFTISKDNAENTLYLQMNNLKTEDTATYYCASIYYYEAEYLHWYFDFWGQGALVTVSS
VL: EIQMTQSPTSLSASVGDRVTITCRASEGISKNLSWYQQTPGKAPKLLIYATDNLHSGVPSRFSGSGSGTDFTLTISSLQPEDFATYYCQQGWKWPLTFGGGTKLEIT
notes: SC-184_110 containing the G55R mutation in VH; feline antibody captured on an anti-feline chip
[13]
  Kd: 0.142 nM
  koff: 5.48e-05 s⁻¹
  kon: 387000 M⁻¹ s⁻¹

From patent US20250011410A1 (INVETX, published 2025)
